Assay results reported in patent US20040123344A1, “Novel gene encoding an f-box protein which regulates leaf longevity in arabidopsis thaliana and mutant gene thereof” (priority 2000, published 2004).

Tests used:
[1] = target: T1, ASK2(1-172) (Arabidopsis thaliana, UniProt Q9FHW7); test: Yeast two-hybrid assay with ASK2; format: cell-based; settings: HF7c yeast
T1 construct: the plasmid pGAD424-ASK2(1-172)[4] was constructed by inserting a BamHI/PstI fragment of pGTE-ASK2(1-172) into pGAD424; expressed in transfected cells; host or cells: Saccharomyces cerevisiae HF7c
T1 sequence (Q9FHW7 1-171): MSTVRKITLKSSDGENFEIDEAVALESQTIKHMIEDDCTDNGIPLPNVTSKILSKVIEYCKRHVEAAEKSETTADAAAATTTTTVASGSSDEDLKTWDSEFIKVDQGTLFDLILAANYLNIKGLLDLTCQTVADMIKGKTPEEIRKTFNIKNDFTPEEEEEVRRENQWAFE
Source text: As expression vectors of expressing GAL4 DNA binding domain (GAL4-BD) and ORE9 fusion protein, plasmids pGBT9-ORE9 (1-49) and pGBT9-ORE9 (50-693) were constructed. The plasmid pGBT9-ORE9 expresses a fragment of ORE9 containing N-terminal 1-49th amino acids corresponding to an F-box region of ORE9, and the plasmid pGBT9-ORE9 (50-693) expresses a fragment of ORE9 containing 50-693th amino acids from which the F-box region was removed.
First, the gene encoding the ORE9 (1-49) fragment was amplified by PCR using a primer represented by SEQ ID NO: 10 and SEQ ID NO: 11, and then inserted into BamHI and PstI restriction enzyme sites of pGBT9 (Clontech, USA) containing a 4-BD gene and a tryptophan auxotrophic selection marker gene (TRP1), thereby constructing the plasmid pGBT9-ORE9 (1-49). Similarly, the plasmid pGBT 9-ORE9 (50-693) was constructed, which expresses an ORE9 (50-693) fragment and a GAL4-BD fusion protein. In this case, oligonucletides represented by SEQ ID NO: 12 and SEQ ID NO: 13 were used as PCR primers to amplify the gene encoding the ORE9 (50-693) fragment. […]

[2] = target: T2, GST-ASK1 fusion protein (Arabidopsis thaliana, UniProt Q39255); test: In vitro binding assay with GST-ASK1 fusion protein; settings: 35S-labeled in vitro translation product; glutathione beads; GST as negative control
T2 construct: made in house; host or cells: Escherichia coli BL21(DE3) pLysS
T2 sequence (Q39255 1-160): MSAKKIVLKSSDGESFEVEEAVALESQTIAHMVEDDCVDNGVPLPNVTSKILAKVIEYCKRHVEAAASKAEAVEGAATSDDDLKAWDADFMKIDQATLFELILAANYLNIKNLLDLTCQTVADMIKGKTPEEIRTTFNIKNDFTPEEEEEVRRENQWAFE
Source text: In order to examine that ORE9 protein or derivatives thereof directly bind with ASK1, a GST-ASK1 fusion protein and a ^35S-labeled ORE9 protein produced by in vitro translation were subjected to in vitro binding assay. To obtain a glutathione S-transferase (GST) protein and a GST-ASK1 fusion protein, a vector pGEX (APBiotech, Co.) and a vector pGEX-ASK1 were constructed, which express the above proteins, respectively. Artificial sequences represented by SEQ ID NO: 14 and SEQ ID NO: 15 were used as PCR primers to amplify a gene encoding the ASK1 fragment. The resulting PCR product was digested with EcoRI and NcoI restriction enzymes, and inserted into the restriction enzyme sites of the pGEX vector. Escherichia coli BL21(DE3) pLysS was transformed with the resulting two vectors, and GST and GST-ASK1 fusion proteins were expressed. The GST and GST-ASK1 fusion proteins were purified by chromatography with glutathione-Sepharose 4B beads. The purified proteins was subjected to electrophoresis with SDS-polyacryamide gets, dyed with Coomassie blue, and measured for their amount. GST and GST-ASK1 fusion proteins of the same amount were added to glutathione beads, which had been previously washed with 10-fold volume of B buffer (20 mM […], pH 7.6, 150 mM sodium chloride, 10% glycerol, 0.5% NP-40, 1 mM DTT) three times. Then, the resulting proteins were adsorbed 4° C. for one hour using a rotating mixer. The provided beads were washed with 1 ml B buffer three times, and then stored in a state where the ratio of slurries relative to B buffer is 50%.
Meanwhile, a radioactivity-labeled ORE9 (1-693), the mutant type ore9 and ORE9 derivatives (1-327 and 50-693) were prepared using the in vitro transcription/translation system (Promega, USA) and [^35S]-methionine (DuPont NEN, USA). The proteins were quantitatively analyzed with SDS-PAGE and BAS radioanalytic imaging system (Japan). Then, the respective ^35S-labeled translation products of the same amount were mixed with 60 μl GST-adsorbed beads or GST-ASK1 fusion protein-absorbed beads, contained in 1 ml GB buffer (final concentration: 20 mM Tris-HCl, pH 7.5, 0.15% NP-40, 150 mM NaCl, 1 mM EDTA). The resulting beads were cultured in a rotating mixer at 4° C. for two hours, and then washed with 1 ml GB buffer four times. The washed beads were added with 30 μl of 2×SDS sample solutions, boiled for three minutes and then isolated with SDS-PAGE. The resulting gels were dried to dryness, and then exposed to X-ray film.

B1: ore9: mutant protein with early translation termination, 8 LRRs, SEQ ID NO: 3 (protein, listed as Arabidopsis thaliana)
chain: MASTTLSDLPDVILSTISSLVSDSRARNSLSLVSHKFLALERSTRSHLTIRGNARDLSLVPDCFRSISHLDLSFLSPWGHTLLASLPIDHQNLLALRLKFCFPFVESLNVYTRSPSSLELLLPQWPRIRHIKLLRWHQRASQIPTGGDFVPIFEHCGGFLESLDLSNFYHWTEDLPPVLLRYADVAARLTRLDLLTASFTEGYKSSEIVSITKSCPNLKTFRVACTFDPRYFEFVGDETLSAVATSSPKLTLLHMVDTASLANPRAIPGTEAGDSAVTAGTLIEVFSGLPNLEELVLDVGKDVKHSGVALEALNSKCKKLRVLKLG
[1]
  binding with ASK2 in yeast two-hybrid assay: didn't bind to each other
[2]
  binding (co-precipitation) with GST-ASK1: co-precipitated with the GST-ASK1 fusion protein
